This is an account of results in patent US20200172619A1 (UNIVERSIT T STUTTGART, published 2020).

Experiment [1] deals with T1, TNFR1 on the surface of cells (HT1080, HeLa, Kym-1) (human, UniProt P19438 30-455).
T1 sequence (looked up): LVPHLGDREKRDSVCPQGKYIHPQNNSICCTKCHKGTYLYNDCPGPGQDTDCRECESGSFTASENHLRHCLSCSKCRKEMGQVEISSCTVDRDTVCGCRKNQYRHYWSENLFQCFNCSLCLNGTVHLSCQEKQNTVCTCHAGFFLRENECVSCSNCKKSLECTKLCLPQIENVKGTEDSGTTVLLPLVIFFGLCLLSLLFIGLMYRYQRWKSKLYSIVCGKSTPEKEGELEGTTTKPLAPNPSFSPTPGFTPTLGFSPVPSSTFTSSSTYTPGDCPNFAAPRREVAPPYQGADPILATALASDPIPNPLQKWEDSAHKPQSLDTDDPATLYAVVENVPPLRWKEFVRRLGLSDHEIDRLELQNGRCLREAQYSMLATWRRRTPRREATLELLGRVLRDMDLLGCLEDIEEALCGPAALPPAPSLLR
As to the kind of experiment: cell-based or functional assay.

Experiment [2] deals with T2, human TNFR1-Fc fusion protein (human, UniProt P19438 30-211).
T2 construct: Provided by Baliopharm AG; Coated at 1 ug/ml in the ELISA; also called huTNFR1-Fc; immobilized human TNFR1; not shown: Fc part not described
T2 sequence (looked up): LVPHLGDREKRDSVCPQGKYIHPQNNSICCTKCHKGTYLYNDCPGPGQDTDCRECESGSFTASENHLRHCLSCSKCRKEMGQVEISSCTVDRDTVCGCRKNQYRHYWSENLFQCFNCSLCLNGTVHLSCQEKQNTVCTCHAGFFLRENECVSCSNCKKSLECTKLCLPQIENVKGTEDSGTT
Kind of experiment: ELISA, human TNFR1-Fc fusion protein. The procedure: Microtiter plates were coated with 100 μl of TNFFR1-Fc fusion protein (1 μg/ml in PBS) and incubated at 4° C. overnight.

The target of experiment [3] is T3, CD3 on the surface of CD3-transfected Jurkat cells.
T3 construct: whole, on cells; also called CD3 expressing Jurkat cells
Kind of experiment: flow cytometry on CD3-transfected Jurkat cells. The procedure:
(§1) Cells were detached and transferred to a 96 well microtiter plate at a concentration of 100.000-250.000 per well in 100 μl PBA (2% FCS, 0.2% NaN3 in sterile PBS).

Experiment [4] deals with T1, TNFR1 on the surface of cells (HT1080, …). As to the kind of experiment: flow cytometry on TNFR1-expressing HT1080 cells. The protocol:
as §1

Experiment [5] has the same target. As to the kind of experiment: cell-based or functional assay. This is another data set of the same source.
The target is the same in experiment [6]. As to the kind of experiment: cell-based or functional assay. This is another data set of the same source.
Experiment [7] shares this target. Kind of experiment: cell-based or functional assay. The source holds these as a separate data set.
Experiment [8] has as its target T2, human TNFR1-Fc fusion protein. Kind of experiment: ELISA, immobilized human TNFR1-Fc. The procedure:
(§2) Microtiter plates were coated with 100 μl of TNFFR1-Fc fusion protein (1 μg/ml in PBS) and incubated at 4° C. overnight. The residual binding sites were blocked with 2% MPBS (skim milk in PBS, 200 μl per well) at room temperature for 2 hours and subsequently washed twice with PBS. 100 μl of the samples diluted in 2% MPBS were incubated at room temperature for 1 hour prior to the last incubation step with 100 μl of the HRP conjugated detection antibodies in 2% MPBS. Bound protein was detected with 100 μl TMB substrate solution, the HRP-reaction was stopped by the addition of 50 μl 1 M H2SO4 and the absorption at the wavelength of 450 nm was measured using the Infinite microtiter plate reader (TECAN, Maennedorf, Switzerland). Between each incubation step and in advance of the detection, the plates were washed three times with PBST and twice with PBS.

The target is the same in experiment [9]. As to the kind of experiment: ELISA, immobilized human TNFR1-Fc. This is another data set of the same source.
Experiment [10] has the same target. As to the kind of experiment: QCM (Attana), real-time binding, one-to-one fit. The protocol: (§3) FIG. 36. […] Five concentrations between 128 nM and 4 nM were used to generate the kinetic data in b) and a one-to-one binding algorithm was employed for fitting.
Experiment [11] has the same target. As to the kind of experiment: ELISA, human TNFR1-Fc (CHO-produced protein, Example 14). The protocol:
as §2

Experiment [12] has the same target. Kind of experiment: QCM (Attana), real-time binding, 128 nM to 4 nM, one-to-one fit. The protocol: as §3

T3 sequence (P07766 23-207): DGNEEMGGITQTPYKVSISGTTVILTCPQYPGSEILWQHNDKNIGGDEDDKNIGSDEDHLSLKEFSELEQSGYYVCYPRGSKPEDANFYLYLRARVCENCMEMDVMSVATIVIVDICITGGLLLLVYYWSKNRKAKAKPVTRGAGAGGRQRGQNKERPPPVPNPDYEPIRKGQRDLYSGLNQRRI

B1: 13.7N-CD3N-hFc1k (bispecific antibody)
chain 1: HVQLVQSGAEVKKPGSSVKVSCKASGYTFTDFYINWVRQAPGQGLEWIGEIVPSQGEAKYNDKFKARVTITADKSTSTAYMELSSLRSEDTAVYYCARWDFLDYWGQGTTVTVSSGGGGSGGGGSGGGGSDVQMTQSPSSLSASVGDRVTITCRSSQSLLHSNGNTYLHWYQQKPGKAPKLLIYTVSNRFSGVPSRFSGSGSGTDFTLTISSLQPEDFATYYCSQSTHVPYTFGGGTKVEIKAAADKTHTCPPCPAPPVAGPSVFLFPPKPKDTLMISRTPEVTCVVVDVSHEDPEVKFNWYVDGVEVHNAKTKPREEQYNSTYRVVSVLTVLHQDWLNGKEYKCKVSNKGLPSSIEKTISKAKGQPREPSVFPLAPSSKSTSGGTAALGCLVKDYFPSDIAVEWESGALTSGVHTFPAVLQSSGLYSLSSVVTVPSSSLGTQTYSCSVMHEALHNHYTQKSVEPKSC
chain 2: DIQMTQSPSSLSASVGDRVTITCRASQDIRNYLNWYQQKPGKAPKLLIYYTSRLHSGVPSRFSGSGSGTDFTFTISSLQPEDIATYYCQQGNTLPWTFGQGTKLEIKRGGGGSGGGGSGGGGSQVQLVQSGAEVKKPGSSVKVSCKASGGTFSGYTMNWVRQAPGQGLEWMGLINPYKGVSTYNGKFKDRVTITADKSTSTAYMELSSLRSEDTAVYYCARSGYYGDSDWYFDVWGQGTLVTVSSSGGGSGGGGSDKTHTCPPCPAPPVAGPSVFLFPPKPKDTLMISRTPEVTCVVVDVSHEDPEVKFNWYVDGVEVHNAKTKPREEQYNSTYRVVSVLTVLHQDWLNGKEYKCKVSNKGLPSSIEKTISKAKGQPREPSVFIFPPSDEQLKSGTASVVCLVNNFYPRDIAVEWEVDNALQSGNSQESVTEQDSKDSTYSLSSTLTLSKADYEKHKVYSCSVMHEALHNHYTQKSFNRGECGGGGSGGGGSGGGGSGTGGSGG
notes: also called scFv13.7-CD3-Hinge-Fc1k
On to B1, for which the “Cytotxicity IC50” value in experiment [1] amounted to 0.8 nM. The figures for the EC50 in experiment [2], in [3] and in [4] were 3.5 nM, 1.6 nM and 3.7 nM, respectively.

B2: Fv13.7x-Fc1k (Fc fusion)
chain 1: HVQLVQSGAEVKKPGSSVKVSCKASGYTFTDFYINWVRQAPGQGLEWIGEIVPSQGEAKYNDKFKARVTITADKSTSTAYMELSSLRSEDTAVYYCARWDFLDYWGQGTTVTVSSGTGGGSGPSVFLFPPKPKDTLMISRTPEVTCVVVDVSHEDPEVKFNWYVDGVEVHNAKTKPREEQYNSTYRVVSVLTVLHQDWLNGKEYKCKVSNKGLPSSIEKTISKAKGQPREPSVFIFPPSDEQLKSGTASVVCLVNNFYPRDIAVEWEVDNALQSGNSQESVTEQDSKDSTYSLSSTLTLSKADYEKHKVYSCSVMHEALHNHYTQKSFNRGEC
chain 2: DVQMTQSPSSLSASVGDRVTITCRSSQSLLHSNGNTYLHWYQQKPGKAPKLLIYTVSNRFSGVPSRFSGSGSGTDFTLTISSLQPEDFATYYCSQSTHVPYTFGGGTKVEIKGTGGGSGPSVFLFPPKPKDTLMISRTPEVTCVVVDVSHEDPEVKFNWYVDGVEVHNAKTKPREEQYNSTYRVVSVLTVLHQDWLNGKEYKCKVSNKGLPSSIEKTISKAKGQPREPSVFPLAPSSKSTSGGTAALGCLVKDYFPSDIAVEWESGALTSGVHTFPAVLQSSGLYSLSSVVTVPSSSLGTQTYSCSVMHEALHNHYTQKSVEPKSC
notes: CH2 carries A327G, A330S and P331S (EU numbering)
B2: in [5], the “factor of increased inhibitory potential (IL-8 inhibition) compared to ATROSAB” value was 2.8 fold and the “fold reduced bioactivity (IL-8 inhibition) compared to Fab13.7” value was determined as 3.7 fold. The “IL-8 Inhibition IC50” value in [6] was 48 nM. Besides, in [7], the “IC50, Cell death induction [nM] (Kym-1 cells, 0.01 nM TNF)” value worked out at 16.2 nM; the “IC50, IL-6 [nM] (HeLa cells, 0.1 nM TNF)” value was 54.5 nM; the “IC50, IL-8 [nM] (HT1080 cells, 0.1 nM TNF)” value turned out to be 24.2 nM. The “fold reduced binding affinity compared with Fab13.7” value in experiment [8] is 2.1 fold. Moreover, the concentration giving a half-maximal response (EC50) in [9] came to 1.9 nM. In addition, in experiment [10], the koff was 0.000983 s⁻¹ and the kon worked out at 369000 M⁻¹ s⁻¹. In [11], this molecule displayed a concentration giving a half-maximal response (EC50) of 0.37 nM. Moreover, the affinity in [12], expressed as Kd, was 2.66 nM.
